Biological target: T cell Receptor (TcR) on human peripheral blood T lymphocytes
Assay: cell-based or functional assay

Substance | P50% (human PBL proliferation, 3H thymidine incorporation) [ng/mL] | Reduction (fold, against SMEZ-2 wild type) [fold]
SMEZ-2 D42C | 10 | 10000
SMEZ-2 W75L | > 10 | > 100000
SMEZ-2 W75L.D42C.K182Q (M1) | > 10 | > 100000
SMEZ-2 W75L.D42C.K182Q.Y18A. (M2) | > 10 | > 100000
SMEZ-2 Y18A | > 10 | > 100000

— US20060246067A1
